In article PMC8351461 (Frontiers in Immunology, 2021):

How the values were obtained:
Assay in all cases: pull-down
Details in all cases: both partners purified
[1] = molecular target: T1, SARS-CoV-2 Nucleocapsid (N) protein, full-length (SARS-CoV-2, reference Wuhan-Hu-1 …, UniProt P0DTC9)
T1 construct: also called full-length N; FL

[2] = molecular target: T2, SARS-CoV-2 N protein C-terminal intrinsically disordered region (residues 365-419) (SARS-CoV-2, reference Wuhan-Hu-1 …, UniProt P0DTC9)
T2 construct: also called C-IDR

[3] = molecular target: T3, SARS-CoV-2 N protein RNA-binding domain (residues 49-174) (SARS-CoV-2, UniProt P0DTC9)
T3 construct: also called N^49-174; N^RBD

B1: single-domain antibody sdAb-E2 (VHH)
VHH: EVQLQASGGGLVQAGGSLRLSCAASGRTDSTQHMAWFRQAPGKEREFVTAIQWRGGGTSYTDSVKGRFTISRDNAKNTVYLEMNSLKPEDTAVYYCATNTRWTYFSPTVPDRYDYWGQGTQVTVSS
notes: not shown: His6, C-terminal, kept
**Q.** Does B1 bind [1]?
**A.** binds

B2: single-domain antibody sdAb-N3 (VHH)
VHH: KVKLQQSGGGLVQTGGSLRLSCAPSGRTFSVNAMGWYRQAPGKQREPVALISTGGSTNYADSVKGRFTISRDNVKNTVYLQMNTLKPEDTAVYYCYTERWKPRGIERDWGQGTQVTVSS
notes: as for B1
**Q.** Does B2 bind [1]?
**A.** binds

**Q.** Does B2 bind [2]?
**A.** binds

B3: single-domain antibody sdAb-B6 (VHH)
VHH: EVQLQASGGGLVQAGDSLRLSCVAVSGRTISTFAMGWFRQAPGKEREFVATINWSGSSARYADPVEGRFTISRDDAKNTVYLEMSSLKPGDSAVYYCASGRYLGGITSYSQGDFAPWGQGTQVTVSS
notes: as for B1
**Q.** Does B3 bind [1]?
**A.** binds

B4: single-domain antibody sdAb-C2 (VHH)
VHH: EVQLQASGGGLVRPGGSLRLSCAASGFTFSSYAMMWVRQAPGKGLEWVSAINGGGGSTSYADSVKGRFTISRDNAKNTLYLQMNSLKPEDTAVYYCAKYQAAVHQEKEDYWGQGTQVTVSS
notes: as for B1
**Q.** Does B4 bind [1]?
**A.** binds

**Q.** Does B4 bind [3]?
**A.** binds
